# Measurements reported in publication PMC7094341.
# Molecular target: SARS-CoV papain-like protease (PLpro), trypsin-trimmed product of P-PLpro(C2)-His6 (SARS-CoV)
substance,measurement,value
ISG15-AMC (full-length) (from UniProt P05161 1-157),"kcat/KM of hydrolysis of ISG15-AMC by PLpro (fluorescence, pH 7.8, 25 °C)",602000 M⁻¹ s⁻¹
